Test [1] concerns the target T1, human DLL3 (endogenous, on SCLC cell lines NCI-H82 and SHP77 and in SCLC tissue) (human, UniProt Q9NYJ7 27-618).
T1 construct: whole, on cells; also called SCLC cell lines expressing DLL3
T1 sequence (looked up): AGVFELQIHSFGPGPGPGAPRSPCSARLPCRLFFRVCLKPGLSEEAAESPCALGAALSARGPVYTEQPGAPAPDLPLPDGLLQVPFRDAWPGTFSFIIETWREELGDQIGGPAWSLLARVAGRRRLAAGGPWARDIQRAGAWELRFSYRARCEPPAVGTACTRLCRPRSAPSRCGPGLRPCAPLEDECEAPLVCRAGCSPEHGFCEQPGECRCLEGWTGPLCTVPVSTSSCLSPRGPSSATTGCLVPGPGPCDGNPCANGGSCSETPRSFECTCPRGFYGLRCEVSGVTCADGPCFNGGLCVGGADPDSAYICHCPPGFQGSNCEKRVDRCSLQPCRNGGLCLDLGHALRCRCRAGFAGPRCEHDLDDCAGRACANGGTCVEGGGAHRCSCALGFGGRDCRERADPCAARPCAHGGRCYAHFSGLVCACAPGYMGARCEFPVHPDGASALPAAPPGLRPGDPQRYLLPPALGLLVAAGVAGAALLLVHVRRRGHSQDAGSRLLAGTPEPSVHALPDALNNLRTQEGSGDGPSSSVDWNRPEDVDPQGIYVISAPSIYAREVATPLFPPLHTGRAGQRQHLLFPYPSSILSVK
Nature of the test: flow cytometry on a DLL3-positive SCLC cell line (not named on the sheet), PE-conjugated anti-mouse secondary antibody. The source says:
Cells (T cells or human SCLC cells) were stained with increasing concentrations of anti-DLL3 antibody with increasing concentrations in FACS buffer (PBS/0.5% BSA/0.05% sodium azide).
(A flow cytometer gives signals particle by particle.)

Test [2] deals with T2, Human DLL3-His (human, UniProt Q9NYJ7 27-492).
T2 construct: also called huDLL3-His; hu DLL3
T2 sequence: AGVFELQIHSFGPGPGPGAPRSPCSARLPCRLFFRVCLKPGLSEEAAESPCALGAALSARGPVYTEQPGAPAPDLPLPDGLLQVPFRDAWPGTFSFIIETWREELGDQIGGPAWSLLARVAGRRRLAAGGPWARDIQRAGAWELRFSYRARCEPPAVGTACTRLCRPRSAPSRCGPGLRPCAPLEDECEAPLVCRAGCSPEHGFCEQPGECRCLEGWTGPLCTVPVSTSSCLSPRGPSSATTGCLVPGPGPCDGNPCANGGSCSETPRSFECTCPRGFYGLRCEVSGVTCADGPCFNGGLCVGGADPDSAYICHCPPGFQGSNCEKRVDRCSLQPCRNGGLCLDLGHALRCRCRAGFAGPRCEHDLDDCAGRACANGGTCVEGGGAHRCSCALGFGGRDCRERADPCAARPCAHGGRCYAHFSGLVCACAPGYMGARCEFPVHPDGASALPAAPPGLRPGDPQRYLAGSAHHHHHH
Nature of the test: sandwich ELISA with ECL readout (MSD): anti-DLL3 antibody coated, recombinant DLL3 protein titrated; the concentration is that of DLL3 protein. As to the method: Binding of antibodies was performed in an ELISA. In brief, anti-DLL3 antibodies were coated at a concentration of […] at 4° C. over night. After washing the plates were blocked with blocking buffer (Gibco, Gibco #043-90309A) for one hour at room temperature, followed by washing and incubation with recombinant DLL3 protein at increasing concentrations. For detection the bound DLL3 protein was incubated with a polyclonal anti-DLL3 antibody (R&D Systems, AB4315) followed by a SULFO-TAG labelled anti-goat antibody (R32AG-1) for one hour. The bound antibody was quantified by using a Read Buffer (MSD) in a Sector imager 6000 (MSD).
For orientation: An ELISA detects its analyte on a solid surface through an enzyme-linked reagent.

Residue numbers refer to the chain shown, from its start.

B1: anti-DLL3 antibody DLL3#6 (antibody, V domains shown)
VH: QVQLQESGPGLVKPSETLSLTCTVSGGSISSYFWSWIRQPAGKGLEWIGRIYTSGSTNYNPSLNSRLTMSVDTSKNQFSLKLSSVTAADTAVYYCARRGDWGGFDIWGQGTVVTVSS
VL: DIQLTQSPSFLSTSVGDRVTITCRASQDISNYFAWYQQKPGKAPKLLIYAASTLQSGVPSRFSGGGSGTEFTLTISSLQPEDFATYYCQQLNSYPYTFGQGTKLEIK
notes: detected with anti-mouse secondary antibody
Broadly, the EC50 (read off the curve) is the concentration needed to bring the measured effect to its halfway point. For B1, the “EC50 (read off the curve)” value in test [1] was roughly 0.4 nM.

B2: anti-DLL3 antibody DLL3#4 (antibody, V domains shown)
VH: QVQLQQSGTELVKPGASVKLSCKASVYTFTSYFMYWVKQRPGHGLEWIGEISPTNGNSNLNERFKNKATLTVDKSSSTAYMQLSSLTSEDSAVYYCTRGGDGYLDYWGQGTTLTVSS
VL: DIVLTQSPASLAVSLGQRATISCRASKSVSSFGYSFMHWYQQKPGQPPKLLIYLASNLESGVPARFSGSGSGTDFTLNIHPVEEEDAATYYCQHSRELPWTFGGGTKLEIK
notes: as for B1
For the molecule B2, the “EC50 (read off the curve)” value was roughly 0.1 nM in test [1] and roughly 20 ng/mL in test [2].

B3: anti-DLL3 antibody DLL3#5 (antibody, V domains shown)
VH: QVQLVQSGAEVKKPGASVKVSCKASGFTFTGYYIHWVRQAPGQGLEWMGWINPNSGGTNYAQKFQGRVTMTRDSSINTAFMELSRLTSDDTAVYYCAAGWDYWGQGTLVTVSS
VL: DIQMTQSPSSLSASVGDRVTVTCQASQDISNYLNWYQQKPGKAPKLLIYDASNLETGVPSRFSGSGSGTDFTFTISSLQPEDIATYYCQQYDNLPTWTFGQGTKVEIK
notes: detected with anti-mouse reagents
With B3, the “EC50 (read off the curve)” value in test [1] was roughly 0.5 nM; in test [2], roughly 10 ng/mL.

B4: anti-DLL3 antibody DLL3#3 (antibody, V domains shown)
VH: QVQLVQSGAEVKKPGASVKVSCKASGYTFTSYYVHWVRQAPGQGLEWMVIINPGGGTTSYAQKFLGRVTMTRDTSTNTVYMELKSLRSEDTAVYYCARGEAVTGNYFYYGMDVWGQGTTVTVSS
VL: DIQMTQSPSAMSASVGDRVTITCRASQGISNYLVWFQQKPGKAPKRLIYAVSSLYSGVPSRFSGSGSGTEFTLTISSLQPEDFATYYCLQHDSYPYTFGQGTKLEIK
notes: as for B1
B4: the “EC50 (read off the curve)” value in test [2] was roughly 10 ng/mL.

B5: anti-DLL3 antibody DLL3#2 (antibody, V domains shown)
VH: B4 VH with V34M, V49G, G54S, T57S, L65Q, N77S, K84S, T103G, F107Y
VL: B4 VL with V34A, A43V, K45E, R46P, V51A, Y55Q, G68V, D92N, Y94S
notes: as for B1
As to B5, the binding result in test [1] is “binds”.

B6: anti-DLL3 antibody DLL3#1 (antibody, V domains shown)
VH: QVQLVQSGAEVKKPGASVKVSCKASGNTFTNYYMHWVRQAPGPGLEWMGIIDPSVGSKSYAQKFLGRVTIARDTSTSTVFLDLYSLRSEDTAVYFCARAGKRFGESYFDYWGQGTLVTVSS
VL: EIVLTQSPGTLSLSPGERATLSCRASQSVSSNFLVWYQQKPGQAPRPLIYGASTRASGIPDRFSGSGSGADFTLTISRLEPEDFALYYCQQYGDSPYTFGQGTTLEIK
notes: it was detected with anti-mouse reagents
As for B6, in test [1], the binding result is reported as “binds”.

For the origin of these results see US20220251236A1 (Boehringer Ingelheim, published 2022).
